Reference: the supplement of paper PMC10567573

B1: CPOX (parent)
chain: HAPTIHFNYRYFEVEEADGNKQWW

Variants of: B1
Experiment: protein stability index of a GFP-peptide fusion (GPS, HEK-293T) (PSI 1-6); higher = more stable
Details: c terminus: a fixed tail appended
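Further: lentivirally expressed fusions sorted by FACS into six bins by GFP to DsRed ratio, PSI derived from sequencing read proportions per bin multiplied by bin number.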

Protein stability index of substitutions, site by site:
E15: S 2.49; F 2.14; D 2.58; Q 2.2; V 1.79; I 2.7; M 2.35; T 1.81; P 2.13; H 1.5; W 2.4; N 1.84; R 1.41; G 2.04; Y 1.9; K 2.56; L 2.49; A 1.93; C 2.15
F7: D 2.89; V 2.58; E 3.06; S 3.02; N 2.71; Y 2.48; W 2.96; P 2.8; T 3.15; C 2.35; R 2.83; A 3.4; G 3.52; L 2.86; H 3.35; Q 3.21; K 3.03; M 2.26; I 3.05
Q22: A 1.98; H 2.03; D 3.12; S 1.59; L 2.01; R 2.5; I 2.3; G 2.46; N 2.19; M 1.76; Y 2.5; P 2.56; W 2; E 3.35; V 1.9; C 1.96; F 1.67; T 2.27
W24: F 2.69; C 2.63; G 2.81; L 2.66; A 3.17; E 3.06; I 3.35; H 3.03; N 3.06; K 3.24; D 3.82; M 3.4
Y9: H 2.9; I 2.22; D 3.46; F 2.05; R 3.23; K 3.37; L 3.03; N 3.16; W 3.32; E 3.5; M 2.6; T 2.79; Q 2.82; C 1.29; P 3.1; A 2.33; V 2.25
A17: G 2.57; K 2.9; D 2.6; M 2.27; E 3.01; F 1.97; L 1.96; T 2.35; C 2.08; V 1.9; R 2.02; S 2.23; I 1.86; H 1.89; Q 2.31; N 3.19; Y 1.77; P 2.05
E13: I 2.04; R 1.56; Q 2.17; C 2.07; F 1.63; W 2.31; V 2.52; H 2.09; T 1.67; G 2.06; K 1.8; Y 1.7; M 2.22; N 2.15; S 1.45; L 1.41; D 2.36; P 1.86; A 1.97
K21: M 1.54; H 2.6; G 2.44; N 2.22; E 2.53; D 2.52; F 1.6; V 2.1; R 2.43; C 2.45; I 2.25; Q 2.67; W 1.89; L 1.74; P 2.25; A 2.44; Y 1.95; S 1.99; T 1.53
W23: S 3.19; P 3.34; V 2.36; C 2.07; R 3.03; I 2.58; G 2.8; A 3.94; F 2.04; K 3.35; D 4.27; T 2.63; L 2.73; H 3.06; Q 3.38; M 3.04; N 3.71; Y 2.33; E 4.22
N20: R 2.46; P 1.98; M 1.32; K 3.29; T 2.85; D 2.12; S 2.08
